# According to PMC11638594 (Molecular Therapy. Methods & Clinical Development, 2024):
# B1: AAVX nanobody (CaptureSelect Biotin Anti-AAVX Conjugate; ligand of the POROS CaptureSelect AAVX affinity resin) (VHH)
# VHH: QVQIQESGGGIVQAGGSLRLSCAASGRTHGMYAMGWFRQAPGKEREFVAVQDITASNTHYSSAVKGRFTLSRDNAKNTAYLQMNNLKPEDTAVYYCAAGPTLMSGSYNSARDYDYWGQGTQVTVSS
# Biological target: AAV8 capsid (adeno-associated virus serotype 8) (adeno-associated virus 8, UniProt Q8JQF8)
# Test: cryo-EM structure
binder,measurement,value
B1,stoichiometry N,2 nanobodies per 5-fold
